Experiment [1] has as its target GFP-PEP (natural target peptide of the PDZ-3 domain, C-terminus of CRIPT) (Aequorea victoria, UniProt P42212, F64L/H231L/S65T). The following applies: PDZ fused to Gal4 activation domain, GFP-pep fused to Gal4 binding domain, SD lacking Trp, Leu, His, Adenine. The method, then:
The two parts of the yeast two-hybrid system were prepared as follows. On one hand, either of the GFP derivatives carrying the C-terminal protein sequences (GFP-pep and GFP-Eg5) were cloned between the NcoI and BamHI sites the pGBKT7 plasmid (Clontech) to obtain a fusion with the DNA binding domain of Gal4. On the other hand, the modified PDZ domains were cloned between the EcoRI and XhoI sites of pGADT7 (Clontech) to obtain a fusion with the activation domain of Gal4. The resulting plasmids were introduced in the yeast strain J569a using the method described by Agatep et al, 1998. Yeast cells were plated in SD lacking Trp and Leu, and then stricken in selective SD medium lacking Trp, Leu, His, and Adenine. Cells only grow in this selective medium if there is an interaction between the expression products of the two plasmids.
Yeast cells transfected with only one of the two plasmids were also tested as controls.

The next experiment deals with GFP (Aequorea victoria, UniProt P42212, F64L/H231L/S65T). The following applies: 6XHis-PDZ on Ni-NTA agarose, E. coli extract, anti-GFP Western blot. An excerpt:
(§1) To carry out the affinity chromatography assay, bacterially-expressed PDZ domains and EGFP derivatives were produced and fused to the different target peptides. The original and modified PDZ domains were expressed in E. coli XL1-Blue as fusions with 6XHis. The EGFP-peptides fusions were expressed in E. coli BL21 as described in Sambrook et al, 1989, Molecular Cloning: A Laboratory Manual, 2nd Ed., Vol 3. The bacterially expressed PDZ domains were then bound to nickel resin (Ni-NTA agarose, Quiagen) as described by the manufacturer. The resin-bound PDZ domains were then incubated with E.coli extracts made from bacteria expressing each of the target peptide-GFP fusions and washed four times with 50 mM NaH2PO4, 300 mM NaCl; 20 mM Imidazole; 0,1% of TritonX-100 to remove any unbound proteins. The bound proteins were eluted using 50 mM NaH2PO4, 300 mM NaCl; 200 mM Imidazole and analyzed by Western blot using antibodies against GFP to determine the presence of EGFP fused to the target peptide.
(Immunoblotting shows a protein as a band on a membrane.)

Experiment [2] addresses GFP fused to the C-terminal peptide recognized by the original PDZ (pep, CRIPT) (Aequorea victoria, UniProt P42212, F64L/H231L/S65T). The following applies: 6XHis-PDZ on Ni-NTA agarose, E. coli extract, anti-GFP Western blot.
From the text: as §1

For experiment [3], the target named is GFP fused to the Eg5 C-terminal peptide (Mus musculus, UniProt Q6P9P6). The following applies: 6XHis-PDZ on Ni-NTA agarose, E. coli extract, anti-GFP Western blot.
From the text: as §1

Another experiment has as its target T1, Biotin-GG-KQTSV (Homo sapiens, UniProt Q9P021).
T1 construct: with its natural target (Biotin-GG-KQTSV)
Kind of experiment: Micro-calorimetric assay. The format is binding. An excerpt:
Physical methods for measuring the dissociation (or affinity) constant include iso-thermal calorimetry, surface plasmon resonance, analytical ultra-centrifagation (where appropriate), and so forth. Iso-thermal calorimetry is the preferred method. Iso-thermal calorimetry measures the heat released when a binding polypeptide binds to its target under constant-temperature, constant-pressure conditions. From these measurements, the thermodynamic parameters of this binding can be routinely determined by the methods of physical chemistry. For example, it is routinely possible to obtain the binding affinity (or dissociation constant), the stoichiometry of binding (n), the heat (or enthalpy) of binding (H), the heat capacity of binding, the entropy of binding, and so forth. Current micro-iso-thermal machines are readily available commercially. Such machines are fully automatic, directly returning the above thermodynamic results. See, e.g., MicoCal, LLC, Northampton. Mass.; www.microcalorimetry.com.
FIG. 14 illustrates the routine use of micro-calorimetry to determine the binding parameters of the wild-type PDZ (PDZ3 of PSD095) domain with its natural target (Biotin-GG-KQTSV). This figure present the output of an automated micro-calorimetry experiment returning the stoichiometry constant (n), the affinity constant (K), the enthalpy of binding (H), and the entropy of binding (S).

Where two headings read alike, the source gives them in different places.

B1: PDZ-3: third PDZ domain of the mouse PSD-95 protein, amino acid 302 to 402; unmodified redesign precursor (protein, UniProt Q62108 302-402, looked up, fragment)
chain: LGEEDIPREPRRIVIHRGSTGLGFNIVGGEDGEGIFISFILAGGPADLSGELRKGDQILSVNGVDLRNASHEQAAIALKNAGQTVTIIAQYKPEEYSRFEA
modifications: PDZ 3
notes: third PDZ domain of the mouse PSD-95 protein, amino acid 302 to 402; unmodified redesign precursor
On to B1, for which the figures for the “viability of transfected yeast cells in selective medium (interaction)” value in experiment [1] and in experiment [1] (listed as PGADT7-PDZ) were “specifically interacts with its target peptide” and “allow viability”, respectively. In addition, in the experiment with GFP, the “binding of GFP alone to immobilized PDZ domain” value is given as “not able to bind”. Also, the “binding of GFP-pep fusion to immobilized PDZ domain” value in experiment [2] is given as “binds only to its naturally recognized target peptide”; in experiment [2] (listed as original PDZ), “very efficiently bind”. In experiment [3], the “binding of GFP-Eg5 fusion to immobilized PDZ domain” value was “not able to bind”. Besides, the Kd in the experiment with Biotin-GG-KQTSV (corresponding to the measured affinity constant, read-out: dissociation constant) amounted to 39 µM. In the experiment with Biotin-GG-KQTSV (micro-calorimetry, natural target Biotin-GG-KQTSV), the “affinity constant (K)” value came out at 25700 M⁻¹.

The values are drawn from US20030059827A1, “Engineered protein binding domains and methods and systems for their design and use” (priority 2001, published 2003).
